Target: STAT3 (Homo sapiens (Human), UniProt P40763 1-770)
Experiment: FLAG affinity purification from transfected cell lysate, immunoblot with STAT3 antiserum

Sequence of STAT3 (P40763 whole entry): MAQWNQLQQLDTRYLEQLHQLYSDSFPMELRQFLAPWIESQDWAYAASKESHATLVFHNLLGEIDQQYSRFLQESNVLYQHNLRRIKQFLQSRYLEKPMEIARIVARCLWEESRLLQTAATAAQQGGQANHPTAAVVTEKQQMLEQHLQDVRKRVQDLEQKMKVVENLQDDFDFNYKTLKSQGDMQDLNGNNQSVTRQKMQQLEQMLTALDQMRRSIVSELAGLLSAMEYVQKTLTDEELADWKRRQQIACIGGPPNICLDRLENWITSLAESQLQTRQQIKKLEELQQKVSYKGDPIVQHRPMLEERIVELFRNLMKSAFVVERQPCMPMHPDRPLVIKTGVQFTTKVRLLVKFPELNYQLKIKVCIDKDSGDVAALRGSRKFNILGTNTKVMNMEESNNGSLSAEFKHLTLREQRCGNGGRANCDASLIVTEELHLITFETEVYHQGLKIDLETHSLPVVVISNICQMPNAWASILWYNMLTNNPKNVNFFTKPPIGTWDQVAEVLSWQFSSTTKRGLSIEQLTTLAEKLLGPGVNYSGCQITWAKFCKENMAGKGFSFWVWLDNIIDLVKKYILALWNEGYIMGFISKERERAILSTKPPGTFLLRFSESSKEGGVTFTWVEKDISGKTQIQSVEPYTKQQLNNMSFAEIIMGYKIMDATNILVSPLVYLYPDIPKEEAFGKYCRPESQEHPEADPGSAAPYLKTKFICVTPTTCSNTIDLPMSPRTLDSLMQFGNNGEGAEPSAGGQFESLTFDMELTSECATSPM

B1: FLAG-tagged SV5 V protein (other)
chain: MDPTDLSFSPDEINKLIETGLNTVEYFTSQQVTGTSSLGKNTIPPGVTGLLTNAAEAKIQESTNHQKGSVGGGAKPKKPRPKIAIVPADDKTVPGKPIPNPLLGLDSTPSTQTVLDLSGKTLPSGSYKGVKLAKFGKENLMTRFIEEPRENPIATSSPIDFKRGRDTGGFHRREYSIGWVGDEVKVTEWCNPSCSPITAAARRFECTCHQCPVTCSECERDT
notes: also called FLAG-SV5 V
**Q.** Does B1 bind?
**A.** Result: no binding

Reference: patent US20060210536A1 (published 2006)
